Among the data in article PMC4847857 are cholesterol efflux from [H^3]-cholesterol-loaded THP-1 macrophages to apoA-I (10 μg/ml) after heat-killed L. acidophilus K301; no effect in the absence of apoA-I values, retold here.

For experiment [1], the target named is ATP-binding cassette A1 (human (endogenous in THP-1)) (UniProt O95477).
Experiment [2] deals with ATP-binding cassette G1 (human (endogenous in THP-1)) (UniProt P45844).

Sequence of UniProt O95477 (O95477 whole entry): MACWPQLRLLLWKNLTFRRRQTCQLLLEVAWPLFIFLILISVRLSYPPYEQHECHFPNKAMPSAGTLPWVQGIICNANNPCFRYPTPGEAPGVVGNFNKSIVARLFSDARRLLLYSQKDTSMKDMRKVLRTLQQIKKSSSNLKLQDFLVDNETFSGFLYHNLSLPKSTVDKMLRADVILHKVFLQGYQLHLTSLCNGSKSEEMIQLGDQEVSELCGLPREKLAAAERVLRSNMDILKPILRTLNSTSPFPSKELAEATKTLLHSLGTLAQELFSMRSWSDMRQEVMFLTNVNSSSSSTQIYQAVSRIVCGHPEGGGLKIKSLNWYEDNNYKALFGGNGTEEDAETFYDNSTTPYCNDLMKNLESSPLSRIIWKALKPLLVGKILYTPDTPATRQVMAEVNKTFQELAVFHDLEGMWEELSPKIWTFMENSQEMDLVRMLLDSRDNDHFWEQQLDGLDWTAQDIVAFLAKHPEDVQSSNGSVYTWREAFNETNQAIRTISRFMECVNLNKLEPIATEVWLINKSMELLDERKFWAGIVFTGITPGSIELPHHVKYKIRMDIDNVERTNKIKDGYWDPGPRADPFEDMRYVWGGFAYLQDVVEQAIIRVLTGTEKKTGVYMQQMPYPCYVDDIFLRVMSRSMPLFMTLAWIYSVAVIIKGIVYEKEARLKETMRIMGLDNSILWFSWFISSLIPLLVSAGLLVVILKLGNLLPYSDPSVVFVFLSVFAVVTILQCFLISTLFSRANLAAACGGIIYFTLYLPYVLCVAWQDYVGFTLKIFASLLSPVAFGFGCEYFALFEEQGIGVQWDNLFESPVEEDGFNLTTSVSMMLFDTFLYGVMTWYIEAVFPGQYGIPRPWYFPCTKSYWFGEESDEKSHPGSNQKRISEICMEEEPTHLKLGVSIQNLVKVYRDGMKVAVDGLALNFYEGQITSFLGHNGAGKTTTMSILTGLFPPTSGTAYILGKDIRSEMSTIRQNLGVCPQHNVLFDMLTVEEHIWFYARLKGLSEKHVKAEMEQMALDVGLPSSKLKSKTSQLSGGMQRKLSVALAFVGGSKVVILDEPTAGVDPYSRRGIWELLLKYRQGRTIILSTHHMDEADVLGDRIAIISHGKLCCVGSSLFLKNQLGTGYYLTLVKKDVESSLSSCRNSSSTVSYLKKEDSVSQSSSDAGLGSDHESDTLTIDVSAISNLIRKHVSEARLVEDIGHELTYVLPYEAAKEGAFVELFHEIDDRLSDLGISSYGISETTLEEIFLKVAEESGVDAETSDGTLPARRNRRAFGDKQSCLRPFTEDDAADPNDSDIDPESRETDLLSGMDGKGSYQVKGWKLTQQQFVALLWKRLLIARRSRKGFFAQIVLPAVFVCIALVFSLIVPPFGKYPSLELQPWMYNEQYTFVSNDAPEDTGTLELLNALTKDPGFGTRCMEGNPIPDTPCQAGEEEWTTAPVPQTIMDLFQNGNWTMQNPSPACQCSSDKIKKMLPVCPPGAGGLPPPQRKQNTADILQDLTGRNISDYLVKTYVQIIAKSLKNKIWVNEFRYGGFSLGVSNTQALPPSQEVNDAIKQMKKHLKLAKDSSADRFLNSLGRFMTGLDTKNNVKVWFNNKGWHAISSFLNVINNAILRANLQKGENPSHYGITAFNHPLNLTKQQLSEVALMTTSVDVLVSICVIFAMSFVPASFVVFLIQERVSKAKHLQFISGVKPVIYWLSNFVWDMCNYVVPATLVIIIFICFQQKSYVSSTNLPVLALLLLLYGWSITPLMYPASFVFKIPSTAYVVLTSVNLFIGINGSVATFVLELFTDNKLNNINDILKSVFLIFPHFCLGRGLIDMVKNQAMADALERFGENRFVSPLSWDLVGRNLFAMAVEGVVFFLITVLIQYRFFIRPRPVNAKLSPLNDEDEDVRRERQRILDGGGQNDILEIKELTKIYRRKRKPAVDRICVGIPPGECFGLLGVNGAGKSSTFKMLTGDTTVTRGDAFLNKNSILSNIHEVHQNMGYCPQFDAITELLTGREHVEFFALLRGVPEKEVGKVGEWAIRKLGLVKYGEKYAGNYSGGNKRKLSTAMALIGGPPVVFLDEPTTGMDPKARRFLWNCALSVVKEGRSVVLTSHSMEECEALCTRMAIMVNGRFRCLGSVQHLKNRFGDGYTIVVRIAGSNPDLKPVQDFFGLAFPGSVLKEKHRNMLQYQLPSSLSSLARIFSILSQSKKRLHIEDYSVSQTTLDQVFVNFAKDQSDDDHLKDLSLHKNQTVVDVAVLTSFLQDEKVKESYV

Take “human apoA-1 from human plasma (from UniProt P02647 19-267) (ligand)”: the cholesterol efflux from [H^3]-cholesterol-loaded THP-1 macrophages to apoA-I (10 μg/ml) after heat-killed L. acidophilus K301; no effect in the absence of apoA-I in experiment [1] and in experiment [2] was 2.3 fold each time.
